Experimental data published in article PMC6300308, “Linear Eyring Plots Conceal a Change in the Rate-Limiting Step in an Enzyme Reaction” (Biochemistry, 2018).
Where two headings read alike, the source gives them in different places.

B1: PaHBDH (Psychrobacter arcticus 273-4) (protein)
chain: MATQLQQDLTGKVALVTGAASGIGRDIAETYAKAGAAVGIADINLEAAQKTVDAIEAAGGRALAIAMDVTSEAAVNDGVQRLVDTFGGIDILVSNAGIQIIDPIHKMAFEDWKKMLAIHLDGAFLTTKAAIQHMYKDDKGGTVIYMGSVHSHEASLFKAPYVTAKHGLLGLCRVLAKEGAVHNVRSHVICPGFVKTPLVEKQIPQQAAEKGISEESVVNDIMLVNTVDKEFTTVDDIAQLALFLAAFPTNVFTGQSIVASHGWFMN
notes: recombinant purified enzyme; cloning details only in supplement

Legend:
AbHBDH = molecular target: T1, AbHBDH (Acinetobacter baumannii, UniProt A0A1E3M3N6); experiment: stopped-flow single-turnover kinetics, NADH limiting; format: biochemical; settings: acetoacetate or 3-oxovalerate as co-substrate; 283 and 298 K
T1 construct: gene AUO97_16470; recombinant purified enzyme; cloning details only in supplement
T1 sequence (A0A1E3M3N6 1-261): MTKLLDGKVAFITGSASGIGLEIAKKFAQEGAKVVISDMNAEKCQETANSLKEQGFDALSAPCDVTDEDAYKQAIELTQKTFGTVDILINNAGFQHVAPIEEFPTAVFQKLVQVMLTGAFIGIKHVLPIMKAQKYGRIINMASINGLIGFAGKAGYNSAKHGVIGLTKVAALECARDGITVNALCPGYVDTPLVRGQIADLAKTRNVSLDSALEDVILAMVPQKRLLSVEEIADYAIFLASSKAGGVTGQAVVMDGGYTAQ

PaHBDH = molecular target: T2, PaHBDH (Psychrobacter arcticus, UniProt Q4FRT2); experiment: as above; format: biochemical; settings: acetoacetate or 3-oxovalerate as co-substrate; 283 and 298 K
T2 construct: gene Psyc_1428; recombinant purified enzyme; cloning details only in supplement
T2 sequence (Q4FRT2 1-266): B1 chain

[1] = substrate: CCC(=O)CC(=O)O; experiment: steady-state saturation curves; format: biochemical, Psychrobacter arcticus; settings: co-substrate NADH; 283-318 K; 45.0 °C
Description: (§1) steady-state saturation curves on PaHBDH | We measured saturation curves for AbHBDH and PaHBDH at various temperatures

[2] = substrate: CC(=O)CC(=O)O; experiment: steady-state saturation curves; format: biochemical, Psychrobacter arcticus; settings: co-substrate NADH; 283-318 K; 45.0 °C
Description: as §1

[3] = substrate: NC(=O)C1=CN([C@@H]2O[C@H](COP(=O)(O)OP(=O)(O)OC[C@H]3O[C@@H](n4cnc5c(N)ncnc54)[C@H](O)[C@@H]3O)[C@@H](O)[C@H]2O)C=CC1; experiment: purified protein, by the assay type; design: steady-state saturation kinetics of NADH-dependent reduction by purified recombinant HBDH, 298 K
Description: (§2) We measured saturation curves for AbHBDH and PaHBDH at various temperatures (283–330 K for AbHBDH and 283–318 K for PaHBDH) (Figure S2 and Tables S1–S4). […] Apparent steady-state catalytic constants (kcat) were used to construct Eyring plots for each enzyme (Figure 1). […] Accordingly, a significant negative ΔCp^⧧ is predicted for the psychrophilic enzyme but not for the mesophilic one (Table S6).

[4] = substrate: NC(=O)C1=CN([C@@H]2O[C@H](COP(=O)(O)OP(=O)(O)OC[C@H]3O[C@@H](n4cnc5c(N)ncnc54)[C@H](O)[C@@H]3O)[C@@H](O)[C@H]2O)C=CC1; experiment: purified protein, by the assay type; design: steady-state saturation kinetics of NADH-dependent reduction by purified recombinant HBDH, 298 K; remark: listed apart in the source
Description: as §2

Row | Molecule | stopped-flow single-turnover kinetics, NADH limiting (AbHBDH) | stopped-flow single-turnover kinetics, NADH limiting (PaHBDH) | Km [1] [µM] | kcat [1] [s⁻¹] | Km [2] [µM] | kcat [2] [s⁻¹] | Km [3] [µM] | kcat [3] [s⁻¹] | kcat/Km [3] [M⁻¹ s⁻¹] | Km [4] [µM] | kcat [4] [s⁻¹] | kcat/Km [4] [M⁻¹ s⁻¹]
1 | NC(=O)C1=CN([C@@H]2O[C@H](COP(=O)(O)OP(=O)(O)OC[C@H]3O[C@@H](n4cnc5c(N)ncnc54)[C@H](O)[C@@H]3O)[C@@H](O)[C@H]2O)C=CC1 [NADH] | demonstrating NADH is saturated with AbHBDH and kSTO is unimolecular | demonstrating NADH is saturated with PaHBDH and kSTO is unimolecular |  |  |  |  |  |  |  |  |  | 
2 | B1 |  |  | 36 ± 2 | 5.9 ± 0.1 | 110 ± 10 | 86 ± 4 | 30 ± 10 | 86 ± 4 | 2.7e+06 ± 700000 | 3.4 ± 0.4 | 5.9 ± 0.1 | 1.7e+06 ± 800000
